Starred links: 1 amine or outer side, 2 acyl side, 3 side chain; linkers in the order of their positions; H or OH if unused. Positions of bridges follow the written chain, without caps; N, C: chain ends. Non-standard residues stand in square brackets, D forms with d. Groups on a side chain read outwards from the residue. Primed or numbered codes have the meaning given here. No end group written: not given here. *: point of attachment. dpeg″ = —[CO(CH2)O(CH2)2O(CH2)NH]— spacer unit, O=C(COCCOCN[*:1])[*:2]; C20 diacid = O=C(O)CCCCCCCCCCCCCCCCCCC(=O)*; C18 diacid = O=C(O)CCCCCCCCCCCCCCCCC(=O)*; γGlu = O=C(O)[C@H](CCC(=O)[*:2])N[*:1]; Palmitoyl = CCCCCCCCCCCCCCCC(=O)*
T1: human calcitonin receptor (human, UniProt P30988 25-474)
T1 sequence (looked up): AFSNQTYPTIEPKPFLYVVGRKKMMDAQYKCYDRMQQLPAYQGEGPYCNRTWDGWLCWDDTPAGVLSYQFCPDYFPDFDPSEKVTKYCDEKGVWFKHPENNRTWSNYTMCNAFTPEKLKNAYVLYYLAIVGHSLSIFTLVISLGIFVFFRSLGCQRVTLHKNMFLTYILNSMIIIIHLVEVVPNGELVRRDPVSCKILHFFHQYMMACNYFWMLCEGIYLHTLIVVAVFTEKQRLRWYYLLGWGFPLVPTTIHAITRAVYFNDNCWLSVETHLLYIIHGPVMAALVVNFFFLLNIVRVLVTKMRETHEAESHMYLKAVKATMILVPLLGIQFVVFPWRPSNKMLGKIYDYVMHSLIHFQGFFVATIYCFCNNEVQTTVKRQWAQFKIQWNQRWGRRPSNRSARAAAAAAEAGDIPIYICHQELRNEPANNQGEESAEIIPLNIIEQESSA

T2: human amylin 3 receptor (human, UniProt P30988 25-474; O60896 24-148)
T2 sequence (looked up) 1: T1 sequence (looked up)
T2 sequence (looked up) 2: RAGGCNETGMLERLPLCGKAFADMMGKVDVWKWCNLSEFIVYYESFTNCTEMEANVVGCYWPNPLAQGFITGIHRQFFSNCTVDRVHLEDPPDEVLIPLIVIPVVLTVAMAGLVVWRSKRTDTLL

B1: Compound A120 (peptide)
peptide: K(C18 diacid)CNTSTCATQRLANELHKSSNNFGPILPPTKVGSETY-NH2
modifications: disulfide 2-7; N-terminus assumed
SMILES: CC[C@H](C)[C@H](NC(=O)[C@@H]1CCCN1C(=O)CNC(=O)[C@H](Cc1ccccc1)NC(=O)[C@H](CC(N)=O)NC(=O)[C@H](CC(N)=O)NC(=O)[C@H](CO)NC(=O)[C@H](CO)NC(=O)[C@H](CCCCN)NC(=O)[C@H](Cc1c[nH]cn1)NC(=O)[C@H](CC(C)C)NC(=O)[C@H](CCC(=O)O)NC(=O)[C@H](CC(N)=O)NC(=O)[C@H](C)NC(=O)[C@H](CC(C)C)NC(=O)[C@H](CCCNC(=N)N)NC(=O)[C@H](CCC(N)=O)NC(=O)[C@@H](NC(=O)[C@H](C)NC(=O)[C@@H]1CSSC[C@H](NC(=O)[C@@H](N)CCCCNC(=O)CCCCCCCCCCCCCCCCC(=O)O)C(=O)N[C@@H](CC(N)=O)C(=O)N[C@@H]([C@@H](C)O)C(=O)N[C@@H](CO)C(=O)N[C@@H]([C@@H](C)O)C(=O)N1)[C@@H](C)O)C(=O)N[C@@H](CC(C)C)C(=O)N1CCC[C@H]1C(=O)N1CCC[C@H]1C(=O)N[C@H](C(=O)N[C@@H](CCCCN)C(=O)N[C@H](C(=O)NCC(=O)N[C@@H](CO)C(=O)N[C@@H](CCC(=O)O)C(=O)N[C@H](C(=O)N[C@@H](Cc1ccc(O)cc1)C(N)=O)[C@@H](C)O)C(C)C)[C@@H](C)O
B2: Compound A115 (peptide)
peptide: K(C20 diacid)CNTSTCATQRLANELHKSSNNFGPILPPTKVGSETY-NH2
modifications: disulfide 2-7; N-terminus assumed
SMILES: CC[C@H](C)[C@H](NC(=O)[C@@H]1CCCN1C(=O)CNC(=O)[C@H](Cc1ccccc1)NC(=O)[C@H](CC(N)=O)NC(=O)[C@H](CC(N)=O)NC(=O)[C@H](CO)NC(=O)[C@H](CO)NC(=O)[C@H](CCCCN)NC(=O)[C@H](Cc1c[nH]cn1)NC(=O)[C@H](CC(C)C)NC(=O)[C@H](CCC(=O)O)NC(=O)[C@H](CC(N)=O)NC(=O)[C@H](C)NC(=O)[C@H](CC(C)C)NC(=O)[C@H](CCCNC(=N)N)NC(=O)[C@H](CCC(N)=O)NC(=O)[C@@H](NC(=O)[C@H](C)NC(=O)[C@@H]1CSSC[C@H](NC(=O)[C@@H](N)CCCCNC(=O)CCCCCCCCCCCCCCCCCCC(=O)O)C(=O)N[C@@H](CC(N)=O)C(=O)N[C@@H]([C@@H](C)O)C(=O)N[C@@H](CO)C(=O)N[C@@H]([C@@H](C)O)C(=O)N1)[C@@H](C)O)C(=O)N[C@@H](CC(C)C)C(=O)N1CCC[C@H]1C(=O)N1CCC[C@H]1C(=O)N[C@H](C(=O)N[C@@H](CCCCN)C(=O)N[C@H](C(=O)NCC(=O)N[C@@H](CO)C(=O)N[C@@H](CCC(=O)O)C(=O)N[C@H](C(=O)N[C@@H](Cc1ccc(O)cc1)C(N)=O)[C@@H](C)O)C(C)C)[C@@H](C)O
B3: Compound A99 (peptide)
peptide: SCNTSTCATQRLANELK([dpeg″-dpeg″-γGlu-C18 diacid])KSSNNFGPILPPTKVGSETY-NH2
modifications: disulfide 2-7; N-terminus assumed
SMILES: CC[C@H](C)[C@H](NC(=O)[C@@H]1CCCN1C(=O)CNC(=O)[C@H](Cc1ccccc1)NC(=O)[C@H](CC(N)=O)NC(=O)[C@H](CC(N)=O)NC(=O)[C@H](CO)NC(=O)[C@H](CO)NC(=O)[C@H](CCCCN)NC(=O)[C@H](CCCCNC(=O)COCCOCNC(=O)COCCOCNC(=O)CC[C@H](NC(=O)CCCCCCCCCCCCCCCCC(=O)O)C(=O)O)NC(=O)[C@H](CC(C)C)NC(=O)[C@H](CCC(=O)O)NC(=O)[C@H](CC(N)=O)NC(=O)[C@H](C)NC(=O)[C@H](CC(C)C)NC(=O)[C@H](CCCNC(=N)N)NC(=O)[C@H](CCC(N)=O)NC(=O)[C@@H](NC(=O)[C@H](C)NC(=O)[C@@H]1CSSC[C@H](NC(=O)[C@@H](N)CO)C(=O)N[C@@H](CC(N)=O)C(=O)N[C@@H]([C@@H](C)O)C(=O)N[C@@H](CO)C(=O)N[C@@H]([C@@H](C)O)C(=O)N1)[C@@H](C)O)C(=O)N[C@@H](CC(C)C)C(=O)N1CCC[C@H]1C(=O)N1CCC[C@H]1C(=O)N[C@H](C(=O)N[C@@H](CCCCN)C(=O)N[C@H](C(=O)NCC(=O)N[C@@H](CO)C(=O)N[C@@H](CCC(=O)O)C(=O)N[C@H](C(=O)N[C@@H](Cc1ccc(O)cc1)C(N)=O)[C@@H](C)O)C(C)C)[C@@H](C)O
B4: Compound A27 (peptide)
peptide: SCNTSTCATQRLANE[dK]([γGlu-γGlu-Palmitoyl])HKSSNNFGPILPPTKVGSETY-NH2
modifications: disulfide 2-7; N-terminus assumed
SMILES: CCCCCCCCCCCCCCCC(=O)N[C@@H](CCC(=O)N[C@@H](CCC(=O)NCCCC[C@@H](NC(=O)[C@H](CCC(=O)O)NC(=O)[C@H](CC(N)=O)NC(=O)[C@H](C)NC(=O)[C@H](CC(C)C)NC(=O)[C@H](CCCNC(=N)N)NC(=O)[C@H](CCC(N)=O)NC(=O)[C@@H](NC(=O)[C@H](C)NC(=O)[C@@H]1CSSC[C@H](NC(=O)[C@@H](N)CO)C(=O)N[C@@H](CC(N)=O)C(=O)N[C@@H]([C@@H](C)O)C(=O)N[C@@H](CO)C(=O)N[C@@H]([C@@H](C)O)C(=O)N1)[C@@H](C)O)C(=O)N[C@@H](Cc1c[nH]cn1)C(=O)N[C@@H](CCCCN)C(=O)N[C@@H](CO)C(=O)N[C@@H](CO)C(=O)N[C@@H](CC(N)=O)C(=O)N[C@@H](CC(N)=O)C(=O)N[C@@H](Cc1ccccc1)C(=O)NCC(=O)N1CCC[C@H]1C(=O)N[C@H](C(=O)N[C@@H](CC(C)C)C(=O)N1CCC[C@H]1C(=O)N1CCC[C@H]1C(=O)N[C@H](C(=O)N[C@@H](CCCCN)C(=O)N[C@H](C(=O)NCC(=O)N[C@@H](CO)C(=O)N[C@@H](CCC(=O)O)C(=O)N[C@H](C(=O)N[C@@H](Cc1ccc(O)cc1)C(N)=O)[C@@H](C)O)C(C)C)[C@@H](C)O)[C@@H](C)CC)C(=O)O)C(=O)O
B5: Compound A119 (peptide)
peptide: K([γGlu-C20 diacid])CNTSTCATQRLANELHKSSNNFGPILPPTKVGSETY-NH2
modifications: disulfide 2-7; N-terminus assumed
SMILES: CC[C@H](C)[C@H](NC(=O)[C@@H]1CCCN1C(=O)CNC(=O)[C@H](Cc1ccccc1)NC(=O)[C@H](CC(N)=O)NC(=O)[C@H](CC(N)=O)NC(=O)[C@H](CO)NC(=O)[C@H](CO)NC(=O)[C@H](CCCCN)NC(=O)[C@H](Cc1c[nH]cn1)NC(=O)[C@H](CC(C)C)NC(=O)[C@H](CCC(=O)O)NC(=O)[C@H](CC(N)=O)NC(=O)[C@H](C)NC(=O)[C@H](CC(C)C)NC(=O)[C@H](CCCNC(=N)N)NC(=O)[C@H](CCC(N)=O)NC(=O)[C@@H](NC(=O)[C@H](C)NC(=O)[C@@H]1CSSC[C@H](NC(=O)[C@@H](N)CCCCNC(=O)CC[C@H](NC(=O)CCCCCCCCCCCCCCCCCCC(=O)O)C(=O)O)C(=O)N[C@@H](CC(N)=O)C(=O)N[C@@H]([C@@H](C)O)C(=O)N[C@@H](CO)C(=O)N[C@@H]([C@@H](C)O)C(=O)N1)[C@@H](C)O)C(=O)N[C@@H](CC(C)C)C(=O)N1CCC[C@H]1C(=O)N1CCC[C@H]1C(=O)N[C@H](C(=O)N[C@@H](CCCCN)C(=O)N[C@H](C(=O)NCC(=O)N[C@@H](CO)C(=O)N[C@@H](CCC(=O)O)C(=O)N[C@H](C(=O)N[C@@H](Cc1ccc(O)cc1)C(N)=O)[C@@H](C)O)C(C)C)[C@@H](C)O

Molecular target: T1, human calcitonin receptor
Assay: cell-based or functional assay

pEC50 (cAMP accumulation), 0% HSA [pEC50]	pEC50 (cAMP accumulation), 0.1% HSA [pEC50]	pEC50 (cAMP accumulation), 4% HSA [pEC50]	Binder
11.3	9.7	8.1	K([dpeg″-dpeg″-γGlu-C18 diacid])CNTSTCATQRLANELHKSSNNFGPILPPTKVGSETY-NH2 (disulfide 2-7) [Compound A113]
10.3	8.9	7.4	B1
11.5	9.9	8.5	B2
10.4	8.5	7.6	B3
11.9	10.6	9	B4
11.2	9.5	7.9	B5

Molecular target: T2, human amylin 3 receptor
Assay: cell-based or functional assay

pEC50 (cAMP accumulation), 0% HSA [pEC50]	pEC50 (cAMP accumulation), 0.1% HSA [pEC50]	pEC50 (cAMP accumulation), 4% HSA [pEC50]	Binder
12.3	10.6	9	K([dpeg″-dpeg″-γGlu-C18 diacid])CNTSTCATQRLANELHKSSNNFGPILPPTKVGSETY-NH2 (disulfide 2-7) [Compound A113]
11.4	9.7	8.4	B1
12.3	10.7	9.4	B2
10.9	9.5	8.6	B3
12.8	11.8	10.4	B4
11.9	10.2	8.5	B5
